Ends that are not written are not given here.

Experiment [1] deals with T1, hGDF11 homodimer (human, UniProt O95390 299-407).
T1 sequence (looked up): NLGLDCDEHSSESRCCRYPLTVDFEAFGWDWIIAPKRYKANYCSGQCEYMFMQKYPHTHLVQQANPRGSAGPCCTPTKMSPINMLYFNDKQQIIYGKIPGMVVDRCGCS
Put plainly: GDF11-inducible luciferase bioassay, 0.4 nM GDF11 (legend: NB=no binding).

Experiment [2] deals with T2, Inhibin beta A chain (from serum of treated C57BL6 mice) (mouse, UniProt Q04998 309-424, limits assumed).
T2 sequence (looked up): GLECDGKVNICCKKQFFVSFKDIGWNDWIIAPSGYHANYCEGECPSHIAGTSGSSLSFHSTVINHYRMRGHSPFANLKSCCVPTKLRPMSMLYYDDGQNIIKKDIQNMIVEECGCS
Nature of the experiment: pull-down from serum of treated mice with anti human Fc beads, mass spectrometry. How it is done: (§1) To examine the specificity of H4H1657N2 in vivo, C57BL6 mice were injected with drug, and serum from treated mice was subjected to a mass spectrometry based ligand “fishing” experiment. Briefly, drug (H4H1657N2, Control IV or isotype negative control) was injected multiple times (Day 0, D3, D7, D10) over a 14-day period into C57BL6 mice. Animals were sacrificed on D14 and serum was incubated with anti human Fc beads. The beads were washed and bound material was eluted with SDS-PAGE loading buffer. Eluted material was subjected to SDS-PAGE and gel slices corresponding to a molecular weight range of 5-20 kDa were excised. Samples were processed for mass spectrometry using standard reduction, alkylation and trypsinization conditions. Digests were separated on a nano C18 column and automatically spotted onto Bruker Anchor Targets. MALDI-MS (MS/MS) analysis (Bruker Ultraflextreme) was performed in an automated fashion, using LC-WARP (Bruker Daltonics). The mass spectra were searched using MASCOT (Matrix Science) and results were evaluated relative to the isotype control.

The target of experiment [3] is T3, GDF11 (from serum of treated C57BL6 mice) (mouse, UniProt Q9Z1W4 297-405, limits assumed).
T3 sequence (looked up): T1 sequence (looked up)
The description is as above. As for the experimental part:
as §1

The target in experiment [4] is T4, Activin A (UniProt P08476 311-426).
T4 sequence (looked up): T2 sequence (looked up)
Put plainly: SPR Biacore T100, 25°C. How it is done: (§2) Additional antigen binding experiments were conducted in which GDF8 and GDF11 were applied over a surface of selected anti-GDF8 antibodies and control antibodies at 25° C. and 37° C. Equilibrium dissociation constants (KD values) for antigen binding to selected antibodies were determined by surface kinetics using a real-time biosensor surface plasmon resonance assay (BIACORE™ T100). […] Various concentrations (2.5-0.625 nM, 2-fold dilutions) of hGDF8 homodimer or hGDF11 homodimer (or in some experiments, Activin A) were injected over the captured antibody surfaces, and antigen-antibody binding and dissociation were monitored in real time. Kinetic analysis was performed to calculate KD, dissociation rate constants (kd), association rate constants (ka) and half-life of antigen/antibody complex dissociation. (NB=no binding observed).

Experiment [5] addresses T5, Human GDF8 homodimer (mature human Growth and Differentiation Factor-8) (human, UniProt O14793 267-375).
T5 construct: also called hGDF8; myostatin
T5 sequence: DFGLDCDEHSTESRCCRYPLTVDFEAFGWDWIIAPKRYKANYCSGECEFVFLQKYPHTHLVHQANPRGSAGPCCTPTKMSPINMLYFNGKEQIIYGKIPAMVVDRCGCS
Put plainly: SPR Biacore T100, captured on anti-hFc, 37°C. As for the experimental part:
as §2

In experiment [6] the target is T6, hGDF8 peptide 6 (48-72), C-terminal biotinylated (human, C-terminal biotin).
T6 construct: also called peptide 6 C-term
T6 peptide: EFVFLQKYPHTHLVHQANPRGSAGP
Put plainly: Luminex peptide beads. An excerpt: (§3) Fourteen peptides (Table 10) were generated from mature hGDF8 (SEQ ID NO:340). Unmodified peptides, N-terminal biotinylated peptides (N-term), or C-terminal biotinylated peptides (C-term) were used to test and localize antibody binding. Full-length hGDF8, hGDF11 and unmodified peptides were each individually amine-coupled to xMAP® Multi-Analyte COOH Microspheres (or beads). Each of the biotinylated peptides was bound to xMAP® Multi-Analyte LumAvidin Microspheres. Peptide-bound beads suspension were then mixed with an equal volume of blocking buffer (PBS, 1%13SA, 0.05% Tween20, 0.05% Sodium azide) and then distributed into a 96 well filter plate (Millipore, MULTISCREEN® BV). Control and test anti-hGDF8 antibodies, at 2.5 μg/ml were then added to the peptide-bound beads suspension and were allowed to bind to the beads at RT, overnight. The antibody-incubated beads were then washed twice with PBST (PBS+0.05% Tween20) and incubated with either Phycoerythrin (PE) conjugated anti-hFC or PE-conjugated anti-mFC antibodies at RT for 45 min. The beads were washed again and the antibody binding signal to various peptides were detected with either LUMINEX® 100™ or 200™ instruments.

Experiment [7] has as its target T7, hGDF8 peptide 6 (48-72), N-terminal biotinylated (human, N-terminal biotin).
T7 construct: also called peptide 6 N-term
T7 peptide: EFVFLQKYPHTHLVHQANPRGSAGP
Nature of the experiment: Luminex peptide beads.
From the text: as §3

Experiment [8] addresses T8, hGDF8 peptide 12 (73-90), unmodified (human).
T8 peptide: CCTPTKMSPINMLYFNGK
Put plainly: Luminex peptide beads.
From the text: as §3

Experiment [9] concerns the target T9, hGDF8 peptide 8 (52-72), unmodified (human).
T9 peptide: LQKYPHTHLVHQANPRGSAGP
Nature of the experiment: Luminex peptide beads.
From the text: as §3

Experiment [10] concerns the target T10, hGDF8 peptide 1 (1-14), unmodified (human).
T10 peptide: DFGLDCDEHSTESR
Put plainly: Luminex peptide beads.
From the text: as §3

Experiment [11] addresses T11, hGDF8 peptide 8 (52-72), C-terminal biotinylated (human, C-terminal biotin).
T11 construct: also called peptide 8 C-term
T11 peptide: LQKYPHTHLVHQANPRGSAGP
Nature of the experiment: Luminex peptide beads.
From the text: as §3

For experiment [12], the target named is T12, hGDF8 peptide 14 (91-105), unmodified (human).
T12 peptide: EQIIYGKIPAMVVDR
Nature of the experiment: Luminex peptide beads.
From the text: as §3

The target in experiment [13] is T13, hGDF8 peptide 5 (48-69), unmodified (human).
T13 peptide: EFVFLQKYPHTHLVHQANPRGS
Put plainly: Luminex peptide beads.
From the text: as §3

In experiment [14] the target is T14, hGDF8 peptide 2 (1-18), C-terminal biotinylated (human, cysteine pairing not given here).
T14 construct: also called peptide 2 C-term
T14 peptide: DFGLDCDEHSTESRCCRY-biotin
Nature of the experiment: Luminex peptide beads.
From the text: as §3

For experiment [15], the target named is T15, hGDF8 peptide 7 (52-65), unmodified (human).
T15 peptide: LQKYPHTHLVHQAN
Nature of the experiment: Luminex peptide beads.
From the text: as §3

Experiment [16] concerns the target T5, Human GDF8 homodimer (mature human …). Nature of the experiment: SPR Biacore T100, captured on anti-hFc, 25°C. As for the experimental part:
as §2

Experiment [17] has the same target. Nature of the experiment: cell-based or functional assay.

B1: H4H1657N2 (antibody, V domains shown)
VH: EVQVLESGGDLVQPGGSLRLSCAASGFTFSAYAMTWVRQAPGKGLEWVSAISGSGGSAYYADSVKGRFTISRDNSKNTVYLQMNSLRAEDTAVYYCAKDGAWKMSGLDVWGQGTTVIVSS
VL: DIQMTQSPASLSASVGDRVTITCRASQDISDYLAWYQQKPGKIPRLLIYTTSTLQSGVPSRFRGSGSGTDFTLTISSLQPEDVATYYCQKYDSAPLTFGGGTKVEIK
notes: captured by anti-hFc, so human Fc
With B1, the binding result in experiment [1] is “no binding”; in experiment [2], “no binding”; in experiment [3] it was “no binding”; in [4], “no binding (tested: 2.5-0.625 nM)”; in experiment [6], “no binding (tested: 2.5 µg/ml)”; in experiment [7], “no binding (tested: 2.5 µg/ml)”. Moreover, the binding result in experiment [8], in experiment [9], in [10], in [11], in experiment [12] and in experiment [13] was “no binding (tested: 2.5 µg/ml)” in each case. The binding result in [14] and in [15] was “no binding (tested: 2.5 µg/ml)” each time. The Kd in experiment [5] was found to be 37.9 pM; in experiment [16], 28.3 pM. The T1/2 turned out to be 1.52 h in [5] and 3.37 h in experiment [16]. The “IC50, luciferase bioassay, 0.5 nM GDF8” value in [17] amounted to 780 pM.
